Test results published in article PMC10988552.

Target: T1, granulocyte colony stimulating factor (G-CSF) (human), P09919
T1 chain: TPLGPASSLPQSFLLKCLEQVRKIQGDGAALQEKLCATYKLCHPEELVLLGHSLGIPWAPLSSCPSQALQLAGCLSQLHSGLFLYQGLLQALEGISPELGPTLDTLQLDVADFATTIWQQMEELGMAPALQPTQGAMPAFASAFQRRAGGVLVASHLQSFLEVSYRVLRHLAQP
Test: SEC; analytical SEC-HPLC, TSKgel G3000SWXL, mobile phase 0.1 M phosphate pH 2.5, 1 mL/min; 0.3 mg/mL G-CSF in 50 mM citric acid pH 4.25 with or without 1% (w/v) sucrose, mannitol or phenylalanine, before lyophilization; monomer 19.9 min, dimer 18.4 min
Conditions: remark: other sources report otherwise

percent dimer: 16%
stoichiometry N: 2
B1: granulocyte colony stimulating factor (G-CSF), P09919-2 31-204 (natural protein)
chain: T1 chain
